What all share (assay): SEC; Superdex200 column, PBS buffer pH 7.4, after nickel affinity chromatography
For orientation: Size exclusion chromatography separates by hydrodynamic size, large species first.

In experiment [1] the target is SsA1 (R-1b variant with the V157C-N183C disulfide) (respiratory syncytial virus (RSV) | bacteriophage T4) (UniProt P03420).
For experiment [2], the target named is SsA2 (R-1b variant with the A55C-L188C disulfide) (respiratory syncytial virus (RSV) | bacteriophage T4) (UniProt P03420).
For experiment [3], the target named is SsB1 (R-1b variant with the S443C-S466C disulfide) (respiratory syncytial virus (RSV) | bacteriophage T4) (UniProt P03420).

As usually defined, the stoichiometry N is a count of units in the complex or per binding partner.

“SsA1 (R-1b variant with the V157C-N183C disulfide) (from UniProt P03420 26-105; P03420 137-513)” returned a stoichiometry N in experiment [1] of 3.

“SsA2 (R-1b variant with the A55C-L188C disulfide) (from UniProt P03420 26-105; P03420 137-513)” gave a stoichiometry N in experiment [2] of 3.

With “SsB1 (R-1b variant with the S443C-S466C disulfide) (from UniProt P03420 26-105; P03420 137-513)”, the stoichiometry N in experiment [3] was found to be 3.
